Here are results for one substance from PMC7025878.

The assay has as its target GluD1△851 (rat GluD1 receptor truncated C-terminally at residue 851) (rat). Put plainly: cryo-EM structure.

By stoichiometry N is commonly meant a count of units in the complex or per binding partner.

In turn, “GluD1△851 (rat GluD1 receptor truncated C-terminally at residue 851)” displayed a stoichiometry N of 4.
